# Laboratory results reported in patent US20200010570A1 (SICHUAN KELUN BIOTECH BIOPHARMACEUTICAL, published 2020).
# B1: monoclonal antibody 5F10 (antibody, V domains shown)
# VH: EVQLQQSGAELVKPGASVKLSCTASGFDIKDTYIHWVKQRPEQGLEWIGRIDPADGNTRYDPKFQDKTTITTDTSSNTAHLQLSSLTSEDTAVYYCARGLGAWFASWGQGTLVTVSA
# VL: DIQMTQTTSSLSASLGDRVTISCRASQDITNSLNWYQQKPDGTVKLLIHYTSRLHSGVPSRFSGSGSGTDYSLTISNLEQEDIATYFCQQGHTLPPTFGGGTKLEI
# notes: Murine antibody from a hybridoma
# B2: monoclonal antibody 9F6 (antibody, V domains shown)
# VH: EVQLQQSGAELVKPGASVKLSCTASGFNIKDTYMYWVKQRPEQGLEWIGRIDPANGNTKYDPKFQGKATITADTSANTAYLQLSSLTSEDTAVYYCSRGPPGGIGEYIYAMDYWGQGTSVTVSS
# VL: QIVLTQSPAIMSASLGERVTMTCTASSSVSSSYLHWYQQKPGSSPKLWIYSTSNLASGVPARFSGSGSGTSYSLTISSMEAEDAATYYCHQYHRSPPTFGGGTKLEI
# notes: as for B1
# B3: monoclonal antibody 5C10 (antibody, V domains shown)
# VH: QVQLKESGPGLVAPSQNLSITCTVSGFSLSNYDISWIRQPPGKGLEWLGVIWTGGATNYNSAFMSRLSISRDNSKSQVFLKMNSLQTDDTAIYYCVRDSNYRYDEPFTYWGQGTLVTVSA
# VL: DILLTQSPAILSVSPGERVSLSCRASQSIGTNIHWFQQRTNGSPRLLIKYASESISGIPSRFSGSGSGTDFTLSINSVESEDIADYYCQQSNSWPYTFGGGTKLEI
# notes: Murine antibody purified from hybridoma supernatant; also called antibody of hybridoma cell strain LT005
# Columns and labels:
# [1] = molecular target: T1, recombinant protein PDL-1ECD-mFc (human, UniProt Q9NZQ7 19-238); assay: indirect ELISA, method of Example 9; column 'Affinity by ELISA (nM)'
# T1 construct: also called PDL-1-mFc; human PDL-1 (coated antigen); not shown: a TEV site before it is implied by the TEV digestion of
# [2] = molecular target: T2, PDL-1 on the cell surface (293T cells expressing PDL-1) (human, UniProt Q9NZQ7 19-290); assay: FACS, cells expressing PDL-1, method of Example 8; column 'Cell affinity by FACS'
# [3] = molecular target: T1, recombinant protein PDL-1ECD-mFc; assay: competitive ELISA, method 'described in Example 13'; column 'Affinity by competitive ELISA (nM)'; competitor not given
# [4] = molecular target: T2, PDL-1 on the cell surface (293T cells …); assay: FACS, cells expressing PDL-1, method of Example 8
# [5] = molecular target: T3, PDL-1 antigen (PDL-1-mFc digested with TEV protease) (human, UniProt Q9NZQ7 19-238); assay: Fortebio, PDL-1 on sensor, antibody then PD-1 10 µg/ml; competitor PD-1
# T3 construct: the whole entry is named
# T3 sequence (Q9NZQ7 19-238 limits assumed): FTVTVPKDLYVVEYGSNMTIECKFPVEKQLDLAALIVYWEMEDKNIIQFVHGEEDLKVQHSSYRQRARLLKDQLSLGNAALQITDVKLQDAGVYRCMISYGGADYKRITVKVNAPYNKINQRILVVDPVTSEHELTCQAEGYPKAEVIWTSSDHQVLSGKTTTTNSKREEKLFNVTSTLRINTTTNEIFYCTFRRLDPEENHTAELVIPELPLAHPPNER
# T1 sequence (Q9NZQ7 19-238): as the sequence (Q9NZQ7 19-238 limits assumed) above
# T2 sequence (Q9NZQ7 19-290 limits assumed): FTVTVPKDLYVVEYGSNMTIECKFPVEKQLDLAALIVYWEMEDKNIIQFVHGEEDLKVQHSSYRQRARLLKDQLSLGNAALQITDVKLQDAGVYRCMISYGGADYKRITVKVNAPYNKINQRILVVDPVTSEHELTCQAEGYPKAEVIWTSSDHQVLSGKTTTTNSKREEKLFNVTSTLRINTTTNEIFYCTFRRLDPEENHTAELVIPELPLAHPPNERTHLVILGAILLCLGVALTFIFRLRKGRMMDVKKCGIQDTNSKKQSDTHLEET
binder,measurement,setting,value
B1,EC50,[1],0.029 nM
same,EC50,[2],1.48 nM
same,EC50,[3],0.838 nM
same,positive %,[4],60.3%
B2,EC50,[1],0.029 nM
same,EC50,[2],2.93 nM
same,EC50,[3],0.767 nM
same,positive %,[4],80.2%
B3,EC50,[1],0.031 nM
same,EC50,[2],2.3 nM
same,EC50,[3],0.785 nM
same,EC50,[5],0.817 nM
same,positive %,[4],100%
